From patent US8263074B2, “Fibroblast growth factor receptor-1 inhibitors and methods of treatment thereof” (ImClone LLC, priority 2003, dated 2012)
Read-outs that look alike come from different tables or passages of the source.

What was measured:
FGFR-1 = biological target: T1, FGFR-1 (Homo sapiens, UniProt P11362); assay: Phosphorylation assay in FGFR-1 expressing L6 cells (western blot); assay type: cell-based; details: anti-phospho-tyrosine western blot
T1 construct: expressed in transfected cells; host or cells: L6 (ATCC), pBABE retroviral vector
T1 sequence (P11362 22-822): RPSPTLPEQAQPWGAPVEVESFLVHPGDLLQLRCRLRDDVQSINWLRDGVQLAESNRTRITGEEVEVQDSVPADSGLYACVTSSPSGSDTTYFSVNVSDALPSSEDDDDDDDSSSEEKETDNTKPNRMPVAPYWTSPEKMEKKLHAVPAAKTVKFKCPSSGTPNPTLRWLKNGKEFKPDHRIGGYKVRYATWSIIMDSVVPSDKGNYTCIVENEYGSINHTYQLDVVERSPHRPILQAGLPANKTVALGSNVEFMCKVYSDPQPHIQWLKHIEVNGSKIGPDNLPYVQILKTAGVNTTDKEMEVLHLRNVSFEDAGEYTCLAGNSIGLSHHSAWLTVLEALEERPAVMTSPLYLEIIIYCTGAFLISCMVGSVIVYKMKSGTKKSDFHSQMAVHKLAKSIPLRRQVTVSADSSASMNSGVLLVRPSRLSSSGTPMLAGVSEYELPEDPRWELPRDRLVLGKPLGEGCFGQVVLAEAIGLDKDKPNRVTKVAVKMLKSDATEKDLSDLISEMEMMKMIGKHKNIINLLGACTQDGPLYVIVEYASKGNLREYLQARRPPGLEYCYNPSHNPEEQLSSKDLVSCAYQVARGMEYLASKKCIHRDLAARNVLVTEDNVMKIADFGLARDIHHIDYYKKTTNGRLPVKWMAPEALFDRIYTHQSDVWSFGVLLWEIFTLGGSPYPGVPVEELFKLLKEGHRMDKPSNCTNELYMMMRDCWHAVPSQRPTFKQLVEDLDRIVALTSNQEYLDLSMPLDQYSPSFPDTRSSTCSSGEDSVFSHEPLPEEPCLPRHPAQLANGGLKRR
Protocol: FGFR-1 expressing L6 cells were cultured in 10% FBS, DMEM, in a 24-well tissue culture plate till confluency. Cells were Serum starved in 5 μg/ml heparin, 0.1% FBS, DMEM, for 8-24 hrs. Either FR1-H7 or FR1-A1 was added to the media and allowed to bind with the cell surface receptors at 37° C. for 1 hr. Cells were then stimulated with 20 ng/ml FGFs at 37° C. for 10 min before they were lyzed using ice-cold lysis buffer for 30 min. Cell lysate was subjected to SDS-PAGE followed by western blot. Membranes were probed with anti-phospho-tyrosine antibody (Cell Signaling Technology, Inc., Beverly, Mass.) for detection of phosphorylated FGFR-1 receptors according to supplier's instructions.
The phosphorylation assay for small molecules is essentially the same as the phosphorylation assay described in Examples 7 and 15 and Phosphorylation Assay, except that small molecule compounds was used instead of FGFR-1 antibodies in all occasions. […] Equal amount of cell lysates were applied to each sample lane. Receptor auto-phosphorylation was probed using anti-phospho-tyrosine antibody as described in the original patent.

FGFR-1(IIIc) [1] = biological target: T2, FGFR-1(IIIc) (Homo sapiens, UniProt P11362); assay: ELISA blocking assay (receptor binding to immobilized FGF); parameters: purchased R&D Systems
T2 sequence (P11362 22-822): as above
Protocol: Recombinant FGFs (R&D systems, Minneapolis, Minn.) were coated on Immulon® 2B microtiter plates (ThermoLab Systems, Franklin, Mass.) at concentrations of 0.5-2 μg/ml for 2 hrs. The plates were then washed with 0.2% Tween20/PBS, and blocked with 5% milk/PBS for 2 hrs before use. Phage or antibody was serially diluted with 5 μg/ml heparin (Sigma, St Louis, Mo.), 5% milk, PBS. Recombinant FGFR-1 (R&D Systems) was then added to a final concentration of 1 μg/ml. The mixture was incubated at room temperature for 1 hr before transfer to the FGF-2 coated plates, and incubated at room temperature for an additional 2 hrs. Plates were then washed 3 times with 0.2% Tween20/PBS. The bound receptors were detected using an anti-human Fc monoclonal antibody coupled with HRP (Pierce Biotechnology Inc., Rockford, Ill.) solution prepared according to supplier's instructions. Data were presented as % inhibition of ligand-receptor binding of the controls.

FGFR-1(IIIc) [2] = biological target: T2, FGFR-1(IIIc); assay: ELISA binding assay; parameters: purchased R&D Systems
Protocol: (§1) Recombinant FGFRs (R&D systems) at a concentration of 1 μg/ml in PBS were coated on 96-well plates at room temperature for 2 hrs. The plates were washed 3 times with 0.2% Tween20/PBS, and blocked with 5% milk/PBS for 2 hrs before use. FR1-H7 or FR1-A1 was added to the plate and serially diluted in 0.2% Tween20/PBS. The plate was incubated at room temperature for 2 more hrs. The captured antibodies were detected using an anti-human light chain monoclonal antibody conjugated with […] (Pierce Biotechnology, Rockford, Ill.) solution prepared according to supplier's instructions.

FGFR-1b = biological target: T3, FGFR-1b (Homo sapiens, UniProt P11362); assay: BiaCore binding kinetics; details: kinetic analyses
T3 construct: purchased R&D Systems
T3 sequence (P11362 22-822 isoform P11362-19 limits assumed): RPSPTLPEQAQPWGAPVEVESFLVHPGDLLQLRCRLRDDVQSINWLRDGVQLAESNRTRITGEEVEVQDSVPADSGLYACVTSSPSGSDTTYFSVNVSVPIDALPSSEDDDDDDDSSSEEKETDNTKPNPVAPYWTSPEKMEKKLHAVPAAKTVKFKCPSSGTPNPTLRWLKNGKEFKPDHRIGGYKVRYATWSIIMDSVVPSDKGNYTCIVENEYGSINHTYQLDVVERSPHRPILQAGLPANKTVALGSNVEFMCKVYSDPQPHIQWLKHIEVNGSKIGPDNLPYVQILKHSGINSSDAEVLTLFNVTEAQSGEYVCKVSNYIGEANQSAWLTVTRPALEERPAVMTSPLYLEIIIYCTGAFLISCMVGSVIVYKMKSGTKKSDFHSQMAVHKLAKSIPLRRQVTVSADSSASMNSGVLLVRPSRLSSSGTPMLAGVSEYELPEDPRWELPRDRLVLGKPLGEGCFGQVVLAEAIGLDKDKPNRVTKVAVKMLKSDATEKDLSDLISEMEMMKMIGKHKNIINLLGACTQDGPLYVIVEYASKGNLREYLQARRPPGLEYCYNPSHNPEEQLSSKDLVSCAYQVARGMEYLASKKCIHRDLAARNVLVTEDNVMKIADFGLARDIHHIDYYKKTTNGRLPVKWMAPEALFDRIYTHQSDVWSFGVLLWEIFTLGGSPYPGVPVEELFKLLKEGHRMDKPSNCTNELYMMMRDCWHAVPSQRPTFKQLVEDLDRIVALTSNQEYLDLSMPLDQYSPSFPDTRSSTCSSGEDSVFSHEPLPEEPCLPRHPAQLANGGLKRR

FGFR-2b = biological target: T4, FGFR-2b (Homo sapiens, UniProt P21802); assay: BiaCore binding kinetics; details: BiaCore kinetic analysis
T4 construct: purchased R&D Systems
T4 sequence (P21802 22-822 isoform P21802-3 limits assumed): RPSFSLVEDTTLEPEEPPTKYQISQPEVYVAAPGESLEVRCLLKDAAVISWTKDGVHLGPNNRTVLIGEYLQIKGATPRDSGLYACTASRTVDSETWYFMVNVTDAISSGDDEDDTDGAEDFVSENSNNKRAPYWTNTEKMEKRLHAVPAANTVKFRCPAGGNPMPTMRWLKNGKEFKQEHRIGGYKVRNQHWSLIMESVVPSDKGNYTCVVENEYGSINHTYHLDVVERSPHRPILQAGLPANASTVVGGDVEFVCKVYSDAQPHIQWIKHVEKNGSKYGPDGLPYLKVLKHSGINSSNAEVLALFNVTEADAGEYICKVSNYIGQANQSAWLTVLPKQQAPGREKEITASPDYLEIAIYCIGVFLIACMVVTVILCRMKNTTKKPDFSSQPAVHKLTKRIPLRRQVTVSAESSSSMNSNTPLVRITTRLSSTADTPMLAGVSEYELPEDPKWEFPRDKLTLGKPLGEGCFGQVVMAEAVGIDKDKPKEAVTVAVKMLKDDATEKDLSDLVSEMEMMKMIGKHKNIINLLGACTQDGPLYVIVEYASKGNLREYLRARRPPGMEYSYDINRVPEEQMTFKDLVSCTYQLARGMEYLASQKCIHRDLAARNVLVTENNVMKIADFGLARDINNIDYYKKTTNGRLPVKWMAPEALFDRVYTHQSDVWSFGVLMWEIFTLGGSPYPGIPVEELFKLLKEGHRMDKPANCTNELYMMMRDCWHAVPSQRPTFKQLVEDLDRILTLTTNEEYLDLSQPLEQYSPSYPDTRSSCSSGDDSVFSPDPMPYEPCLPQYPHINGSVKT

other FGFRs = assay: ELISA binding assay
Protocol: as §1

FGFR-4 = biological target: T5, FGFR-4 (Homo sapiens, UniProt P22455); assay: ELISA binding assay
T5 construct: purchased R&D Systems
T5 sequence (P22455 22-802): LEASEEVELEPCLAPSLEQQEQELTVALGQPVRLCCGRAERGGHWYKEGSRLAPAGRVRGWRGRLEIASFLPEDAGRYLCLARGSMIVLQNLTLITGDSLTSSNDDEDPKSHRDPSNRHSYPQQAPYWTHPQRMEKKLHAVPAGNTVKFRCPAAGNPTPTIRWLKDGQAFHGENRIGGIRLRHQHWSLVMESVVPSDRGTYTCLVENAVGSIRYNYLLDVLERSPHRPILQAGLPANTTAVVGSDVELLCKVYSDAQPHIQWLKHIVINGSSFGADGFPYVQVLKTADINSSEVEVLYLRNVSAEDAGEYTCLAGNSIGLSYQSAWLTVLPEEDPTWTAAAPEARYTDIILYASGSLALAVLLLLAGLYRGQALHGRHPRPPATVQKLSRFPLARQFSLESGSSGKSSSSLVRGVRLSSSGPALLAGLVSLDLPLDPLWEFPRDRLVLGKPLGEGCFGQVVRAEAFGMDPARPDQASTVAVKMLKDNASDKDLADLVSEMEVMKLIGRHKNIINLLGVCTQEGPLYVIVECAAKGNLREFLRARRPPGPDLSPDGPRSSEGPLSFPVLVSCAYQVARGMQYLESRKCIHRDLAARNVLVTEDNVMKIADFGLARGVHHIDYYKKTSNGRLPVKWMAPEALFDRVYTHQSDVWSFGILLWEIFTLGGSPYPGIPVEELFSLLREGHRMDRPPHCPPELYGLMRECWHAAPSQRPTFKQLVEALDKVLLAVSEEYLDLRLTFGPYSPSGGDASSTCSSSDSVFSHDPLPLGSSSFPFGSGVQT
Protocol: as §1

FGFR-3b = biological target: T6, FGFR-3b (Homo sapiens, UniProt P22607); assay: BiaCore binding kinetics; details: BiaCore kinetic analysis
T6 construct: purchased R&D Systems
T6 sequence (P22607 23-808 isoform P22607-2 limits assumed): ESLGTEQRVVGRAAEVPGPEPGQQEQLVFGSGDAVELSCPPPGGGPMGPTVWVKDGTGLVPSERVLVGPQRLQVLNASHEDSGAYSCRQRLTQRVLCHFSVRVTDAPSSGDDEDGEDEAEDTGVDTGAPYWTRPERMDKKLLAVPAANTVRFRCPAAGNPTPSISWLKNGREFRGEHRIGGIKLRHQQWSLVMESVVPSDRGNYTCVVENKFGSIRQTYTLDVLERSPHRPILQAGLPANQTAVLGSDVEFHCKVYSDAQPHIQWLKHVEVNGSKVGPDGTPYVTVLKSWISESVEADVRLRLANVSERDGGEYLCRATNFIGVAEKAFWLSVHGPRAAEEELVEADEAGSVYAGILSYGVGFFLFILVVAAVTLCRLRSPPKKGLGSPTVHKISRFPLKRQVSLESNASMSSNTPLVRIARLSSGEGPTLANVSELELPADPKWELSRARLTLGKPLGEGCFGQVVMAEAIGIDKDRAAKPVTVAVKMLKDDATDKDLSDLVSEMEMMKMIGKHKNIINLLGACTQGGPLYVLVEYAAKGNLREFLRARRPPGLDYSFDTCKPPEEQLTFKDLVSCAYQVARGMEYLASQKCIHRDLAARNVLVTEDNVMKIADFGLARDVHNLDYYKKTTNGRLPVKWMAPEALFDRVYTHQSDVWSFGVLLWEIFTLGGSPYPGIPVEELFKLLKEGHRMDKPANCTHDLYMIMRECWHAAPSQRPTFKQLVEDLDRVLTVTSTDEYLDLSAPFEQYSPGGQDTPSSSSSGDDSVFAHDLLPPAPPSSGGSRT

[3] = system: Human astrocytoma G18 cells; assay: Mitogenesis assay (3H-thymidine); assay type: cell-based; details: FGF-2 stimulation
Protocol: Human astrocytoma G18 cells were seeded in 96-well tissue culture plates at a concentration of 5×10^4 cells/ml. After attachment, cells were quiesced for 24 hrs in RPMI media (Invitrogen) containing 0.1% FBS and 5 μg/ml heparin. Antibodies were serially diluted, added to the wells, and incubated with the cells at 37° C. for 1 hr. Recombinant FGF-2 was then added to a final concentration of 5 ng/ml. Cells were cultured in an incubator at 37° C. with 5% CO2. Cell growth was determined 24 hrs later by monitoring ^3H-thymidine incorporation as described previously.

FGFR-1c = biological target: T7, FGFR-1c (Homo sapiens, UniProt P11362); assay: BiaCore binding kinetics; details: kinetic analyses; read-out: KD, FGFR-1c
T7 construct: purchased R&D Systems
T7 sequence (P11362 22-822): as the sequence (P11362 22-822) above

FGFR-3c = biological target: T8, FGFR-3c (Homo sapiens, UniProt P22607); assay: BiaCore binding kinetics; details: BiaCore kinetic analysis
T8 construct: purchased R&D Systems

[4] = Repeated-dose study in female athymic nude mice: body weight, food intake, rearing, blood glucose; assay type: in vivo; details: for body weight loss compared to the control: day 5 after two treatments; for reduction of non-fast food intake: between first and second treatments
Protocol: Female athymic nude mice (Cr1:NU/NU-nuBR, Charles River Laboratories, Wilmington, Mass.) were housed 4-5 per cage. Mice were given autoclaved food (Lab Diet #5001, PMI Feeds Inc., St. Louis, Mo.) and water ad libitum. All animal use in this study was conducted in compliance with approved institutional animal care and use protocols, and according to NIH guidelines (Guide for the Care and Use of Laboratory Animals, NIH publication no. 86-23, 1985).
In one assay, mice were injected intraperitoneally (i.p.) with FR1-H7 at 0.19, 1.9, and 19 mg/kg body weight (n=5 per group). In another assay, mice were injected subcutaneously (s.c.) with the antibody, at 0.4, 4, and 40 mg/kg body weight. In control arms, mice were treated with saline i.p. or s.c. In addition, one group of mice was left untreated (n=4). All treatments were given at a volume of 10 μl/g body weight in Saline. Treatments were started on a Wednesday (Day 0) with additional treatments on the following Friday, Monday, Wednesday, and Friday. After this 9-day treatment period mice received no additional treatments.
Alternatively, female athymic nude mice were injected (i.p.) with saline, 2 mg/kg, or 20 mg/kg FR1-A1 on a Monday (Day 0) and Wednesday. Body weights were measured before the first injection, and on Day 2 and Day 5. Food intake per group was measured 2 days after the first injection.
The body weights of all animals were measured 3 times/week. Food consumption, behavior, and serum glucose were evaluated as follows. Food Intake Measurement: Prior to the treatment on Day 2 mice were placed in a new cage and the weight of the food container in the cage top was weighed. Prior to the treatment on Day 5 the weight of the food container was measured again. The difference in the Day 2 to Day 5 food container weight was divided by the number of mice per cage and the number of days between the measurements to give a food intake per mouse per 24 hrs. Activity Measurement: On Day 12, 3 days after the final treatment, mice were placed individually into a new cage and the number of rearings was counted over a 1 min period. Blood Glucose Measurement On Day 16, 7 days after the final treatment, non-fasted blood glucose was measured in blood collected from the tip of the tail using an Ascensia Elite XL blood glucose meter (glucose oxidase method, Bayer, Pittsburg, Pa.).

FGFR-2c = biological target: T9, FGFR-2c (Homo sapiens, UniProt P21802); assay: BiaCore binding kinetics; details: BiaCore kinetic analysis
T9 construct: purchased R&D Systems
T9 sequence (P21802 22-821): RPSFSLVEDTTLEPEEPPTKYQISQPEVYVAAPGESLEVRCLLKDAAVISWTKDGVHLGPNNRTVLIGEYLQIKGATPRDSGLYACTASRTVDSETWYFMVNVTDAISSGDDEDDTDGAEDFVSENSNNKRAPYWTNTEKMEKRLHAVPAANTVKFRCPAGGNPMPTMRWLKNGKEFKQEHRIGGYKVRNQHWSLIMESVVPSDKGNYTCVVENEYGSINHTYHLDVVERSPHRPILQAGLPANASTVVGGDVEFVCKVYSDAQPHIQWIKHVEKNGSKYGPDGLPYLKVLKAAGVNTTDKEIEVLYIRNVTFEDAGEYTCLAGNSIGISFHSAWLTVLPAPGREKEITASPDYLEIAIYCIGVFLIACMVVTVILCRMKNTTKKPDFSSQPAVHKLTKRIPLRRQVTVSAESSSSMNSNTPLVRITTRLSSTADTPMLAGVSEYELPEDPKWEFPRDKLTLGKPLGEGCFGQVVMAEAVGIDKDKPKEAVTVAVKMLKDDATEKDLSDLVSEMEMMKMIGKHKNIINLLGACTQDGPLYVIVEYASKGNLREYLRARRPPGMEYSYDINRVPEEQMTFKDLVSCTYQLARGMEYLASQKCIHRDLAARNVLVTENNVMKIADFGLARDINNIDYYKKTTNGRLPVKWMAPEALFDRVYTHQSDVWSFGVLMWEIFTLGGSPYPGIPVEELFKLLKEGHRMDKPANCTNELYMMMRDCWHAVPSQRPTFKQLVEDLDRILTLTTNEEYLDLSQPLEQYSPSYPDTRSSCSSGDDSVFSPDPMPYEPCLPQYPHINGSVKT

B1: FR1-A1: antibody specific for FGFR-1(IIIc) and/or FGFR-4(IIIc); VH/VL SEQ ID NOS:15, 16 (antibody, listed as Homo sapiens, V domains shown)
VH: MAQVQLVQSGAEVKKPGSSVKVSCKASGQTFTGYYMHWVRQAPGQGLEWMGRIIPILGIANYAQKFQGRVTITADKSTSTAYMELSSLRSEDTAVYYCARGGDLGGMDVWGQG
VL: LEIVLTQSPLSLPVTPGEPASISCRSSQSLRHSNGYNYLDWYLQKPGQSPQLLIYLASNRASGVPDRFSGSGSGTDFTLKISRVEAEDVGVYYCMQALQIPPTFGPGTKVDIKRTVAA
inhibition of ligand (FGF) mediated receptor phosphorylation (FGFR-1; antibody): significantly inhibits | receptor activation by the antibody by itself (FGFR-1; no ligand): does not activated the receptor | IC50 (FGFR-1(IIIc) [1]; immobilized FGF-1, read-out: IC50, blocking FGFR-1(IIIc) binding to FGF-1): ~5 nM | IC50 (FGFR-1(IIIc) [1]; immobilized FGF-2, read-out: IC50, blocking FGFR-1(IIIc) binding to FGF-2): ~10 nM | binding to FGFR-1(IIIc) (FGFR-1(IIIc) [2]): strong binding affinity | Kd (FGFR-1b): > 10000 nM | Kd (FGFR-2b): > 10000 nM | binding to the other FGFRs (other FGFRs): little binding | binding to FGFR-4 (FGFR-4): moderate affinity | Kd (FGFR-3b): > 10000 nM | FGF-2 stimulated DNA synthesis (mitogenesis) of G18 cells [3]: decreased this stimulation in a dose-dependant manner | Kd (FGFR-1c): 0.7 nM | Kd (FGFR-3c): > 10000 nM | body weight loss compared to the control ([4]; 2 mg/kg i.p.): ~9% | reduction of non-fast food intake ([4]; 2 mg/kg): ~14% | body weight loss compared to the control ([4]; 20 mg/kg i.p.): ~23% | reduction of non-fast food intake ([4]; 20 mg/kg): ~44% | Kd (FGFR-2c): > 10000 nM
